These results are taken from patent US20130123460A1, “PEPTIDE FOR IMPROVING BIOSTABILITY OF BIOACTIVE SUBSTANCE, AND BIOACTIVE SUBSTANCE HAVING IMPROVED BIOSTABILITY” (priority 2010, published 2013).

endogenous SSTR 5 of MIN 6 cells (mouse), sequence (O08858 whole entry): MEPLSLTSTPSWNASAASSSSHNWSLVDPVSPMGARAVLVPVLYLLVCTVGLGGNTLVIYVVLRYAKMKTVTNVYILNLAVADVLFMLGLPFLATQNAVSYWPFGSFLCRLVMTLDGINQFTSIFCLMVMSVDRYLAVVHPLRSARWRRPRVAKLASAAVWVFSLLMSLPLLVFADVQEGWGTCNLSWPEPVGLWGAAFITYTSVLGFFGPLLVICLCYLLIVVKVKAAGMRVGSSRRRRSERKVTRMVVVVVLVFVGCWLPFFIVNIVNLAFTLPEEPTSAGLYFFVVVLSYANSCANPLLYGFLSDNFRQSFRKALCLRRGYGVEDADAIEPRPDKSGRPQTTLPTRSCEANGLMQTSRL

The first test addresses endogenous GLP-1 receptor of MIN 6 cells (mouse) (UniProt O35659). In words: cell-based or functional assay.
Take [Ser8]-GLP-1(7-35)-GAm(37-44) (peptide): the Insulin Secretion Capacity of GLP-1 Peptide Complex in MIN 6 Cells (% of control), at 1000 pM is 98 % of control. Same read-out and setting: the result for “[Ser8]-GLP-1(7-35)-GAm(32-44)-NH2 (peptide)” reads 109 % of control; that for “[Ser8]-GLP-1(7-35)-GAm(27-46)-NH2 (peptide)”, 106 % of control.

For “[Ser8]-GLP-1(7-35)-GAm(38-44)-NH2 (peptide)”, the Insulin Secretion Capacity of GLP-1 Peptide Complex in MIN 6 Cells (% of control), at 1000 pM is 120 % of control. “[Ser8]-GLP-1(7-35)-GAm(28-44)-NH2 (peptide)”: the Insulin Secretion Capacity of GLP-1 Peptide Complex in MIN 6 Cells (% of control), at 1000 pM is 105 % of control. On to “[Ser8]-GLP-1(7-35)-GAm(35-44)-NH2 (peptide)”, for which the Insulin Secretion Capacity of GLP-1 Peptide Complex in MIN 6 Cells (% of control), at 1000 pM is 115 % of control.

As for [Ser8]-GLP-1(7-35)-GAm(28-44) (peptide), the Insulin Secretion Capacity of GLP-1 Peptide Complex in MIN 6 Cells (% of control), at 1000 pM is 139 % of control. For the substance “[Ser8]-GLP-1(7-35)-GAm(38-42)-NH2 (peptide)”, the Insulin Secretion Capacity of GLP-1 Peptide Complex in MIN 6 Cells (% of control), at 1000 pM is 125 % of control and the Insulin Secretion Capacity of GLP-1 Peptide Complex in MIN 6 Cells (EC50 value) was determined as 0.5 nM. With “[Ser8]-GLP-1(7-35)-GAm(28-42)-NH2 (peptide)”, the Insulin Secretion Capacity of GLP-1 Peptide Complex in MIN 6 Cells (% of control), at 1000 pM was 105 % of control. As to “[Ser8]-GLP-1(7-35)-GAm(25-46)-NH2 (peptide)”, the Insulin Secretion Capacity of GLP-1 Peptide Complex in MIN 6 Cells (% of control), at 1000 pM is 104 % of control. [Ser8]-GLP-1(7-35)-GAm(33-44) (peptide): the Insulin Secretion Capacity of GLP-1 Peptide Complex in MIN 6 Cells (% of control), at 1000 pM is 89 % of control. On the same count and under the same terms, the result for “[Ser8]-GLP-1(7-35)-GAm(31-44)-NH2 (peptide)” reads 83 % of control; that for “[Ser8]-GLP-1(7-35)-GAm(33-44)-NH2 (peptide)”, 118 % of control. For the substance “[Ser8]-GLP-1(7-35)-GAm(1-46)-NH2 (peptide)”, the Insulin Secretion Capacity of GLP-1 Peptide Complex in MIN 6 Cells (% of control), at 1000 pM was 18 % of control and the Insulin Secretion Capacity of GLP-1 Peptide Complex in MIN 6 Cells (EC50 value) is greater than 1 nM.

In the case of “[Ser8]-GLP-1(7-35)-GAm(17-46)-NH2 (peptide)”, the Insulin Secretion Capacity of GLP-1 Peptide Complex in MIN 6 Cells (% of control), at 1000 pM was 39 % of control and the Insulin Secretion Capacity of GLP-1 Peptide Complex in MIN 6 Cells (EC50 value) was greater than 1 nM. Consider “[Ser8]-GLP-1(7-35)-GAm(37-44)-NH2 (peptide)”, for which the Insulin Secretion Capacity of GLP-1 Peptide Complex in MIN 6 Cells (% of control), at 1000 pM is 82 % of control. As to “[Ser8]-GLP-1(7-35)-GAm(22-46)-NH2 (peptide)”, the Insulin Secretion Capacity of GLP-1 Peptide Complex in MIN 6 Cells (% of control), at 1000 pM was 100 % of control. “[Ser8]-GLP-1(7-35)-GAm(21-46)-NH2 (peptide)”: the Insulin Secretion Capacity of GLP-1 Peptide Complex in MIN 6 Cells (% of control), at 1000 pM was 45 % of control. Take “[Ser8]-GLP-1(7-35)-GAm(30-42)-NH2 (peptide)”: the Insulin Secretion Capacity of GLP-1 Peptide Complex in MIN 6 Cells (% of control), at 1000 pM was 85 % of control.

A further test addresses endogenous SSTR 5 of MIN 6 cells (mouse) (UniProt O08858). The test can be described thus: cell-based or functional assay.
Consider SRIF(1-14)-NH2 (peptide), for which the Suppressibility of Insulin Secretion in MIN 6 Cells, Suppression rate of insulin secretion (%) relative to native SRIF worked out at 100%.

A further test has as its target endogenous VIP receptor of SUP-T1 cells (human). The test can be described thus: cell-based or functional assay.
VIP(1-28)-GAm(28-44)-NH2 (peptide) yielded a cAMP Productivity in SUP-T1 Cells, Activity Intensity (%) relative to native VIP of 67%. Still for that read-out and setting: next, VIP(1-28)-GAm(37-44)-NH2 (peptide): 81%; VIP(1-28)-GAm(32-44)-NH2 (peptide): 85%.
